Results from publication PMC13071878 (Journal of Medicinal Chemistry, 2026).
Bridges are numbered along the chain shown (N, C = ends). Where no end group is shown, it is not given here.

B1: synthetic 'one-ring' macrocyclic peptide GR1.1 (peptide)
peptide: ACFFIGFNRWICSG
modifications: also: one-ring macrocycle, ring type and places not given here
B2: synthetic 'one-ring' macrocyclic peptide GR1.4 (peptide)
peptide: ACEPLGYNLFLCSG
modifications: also: one-ring macrocycle, ring type and places not given here
B3: synthetic 'two-ring' macrocyclic peptide GR3.1.2 (isomer of GR3.1) (peptide)
peptide: ACFLRCHRDVKCWLWCSG
modifications: also: two-ring macrocycle, isomer of GR3.1, ring type and connectivity not given here
B4: DX600, disulfide-constrained cyclic peptide inhibitor of hACE2 (peptide)
peptide: GDYSHCSPLRYYPWWKCTYPDPEGGG
modifications: disulfide 6-17 (inferred)
notes: source: bought: Selleck Chemicals LLC
B5: yeast-displayed 'one-ring' macrocyclic peptide GR1.3 (peptide)
chain: ACEPLGFNRWICSG
modifications: also: one-ring macrocycle, closure not given here
B6: GR1.1, synthetic one-ring macrocyclic peptide (peptide)
peptide: ACFFIGFNRWICSG
notes: also called synthetic GR1.1
B7: GR1.4, synthetic one-ring macrocyclic peptide (peptide)
peptide: ACEPLGYNLFLCSG
notes: also called synthetic GR1.4
B8: GR3.1.2, synthetic isomer 2 of the two-ring macrocyclic peptide GR3.1 (peptide)
peptide: ACFLRCHRDVKCWLWCSG
notes: also called synthetic GR3.1.2

Key:
[1] = biological target: T1, human angiotensin-converting enzyme 1 (hACE1) (human, UniProt P12821 30-1256); assay: enzyme inhibition assay; 0.25 nM hACE1, 10 uM fluorogenic substrate Mca-Arg-Pro-Pro-Gly-Phe-Ser-Ala-Phe-Lys(Dnp)-OH, dilutions of inhibitor; 10 mM Tris-HCl pH 7.4, 300 mM NaCl, 100 uM ZnCl2, 0.1% BSA, 0.1% DMSO; conditions: both partners purified
[2] = biological target: extracellular catalytic domain of human angiotensin-converting enzyme 2 (hACE2), produced in mammalian cells (human, UniProt Q9BYF1 19-615); assay: ITC; MicroCal iTC200, 25 °C, 100 mM Tris pH 7.4, 200 mM NaCl; hACE2 in the cell (6 or 7 uM), peptide in the syringe (60 or 70 uM); single-site model; conditions: both partners purified
[3] = biological target: T1, human angiotensin-converting enzyme 1 …; assay: enzyme inhibition assay; conditions: both partners purified
[4] = biological target: T2, biotinylated extracellular catalytic domain of human angiotensin-converting enzyme 2 (hACE2), produced in … (human, UniProt Q9BYF1 19-615); assay: flow cytometry on cells; yeast surface titration: yeast cells displaying the ligand incubated with soluble biotinylated hACE2 (100 pM to 3 uM), at least 1 h, room temperature (25 °C, pH 7.4); binding/display MFI, one-site fit; apparent KD; conditions: one partner purified
T2 construct: also called biotinylated hACE2

[5] = biological target: T3, human angiotensin-converting enzyme 1 (human, UniProt P12821 30-1256); assay: enzyme inhibition assay (fluorogenic substrate); 0.25 nM hACE1, 10 μM Mca-Arg-Pro-Pro-Gly-Phe-Ser-Ala-Phe-Lys(Dnp)-OH, MP 0.03 nM to 100 μM; 10 mM Tris-HCl pH 7.4, 300 mM NaCl, 100 μM ZnCl2, 0.1% BSA, 0.1% DMSO; conditions: both partners purified
T3 construct: also called hACE1; human ACE1 enzyme
T3 sequence (P12821 30-1256): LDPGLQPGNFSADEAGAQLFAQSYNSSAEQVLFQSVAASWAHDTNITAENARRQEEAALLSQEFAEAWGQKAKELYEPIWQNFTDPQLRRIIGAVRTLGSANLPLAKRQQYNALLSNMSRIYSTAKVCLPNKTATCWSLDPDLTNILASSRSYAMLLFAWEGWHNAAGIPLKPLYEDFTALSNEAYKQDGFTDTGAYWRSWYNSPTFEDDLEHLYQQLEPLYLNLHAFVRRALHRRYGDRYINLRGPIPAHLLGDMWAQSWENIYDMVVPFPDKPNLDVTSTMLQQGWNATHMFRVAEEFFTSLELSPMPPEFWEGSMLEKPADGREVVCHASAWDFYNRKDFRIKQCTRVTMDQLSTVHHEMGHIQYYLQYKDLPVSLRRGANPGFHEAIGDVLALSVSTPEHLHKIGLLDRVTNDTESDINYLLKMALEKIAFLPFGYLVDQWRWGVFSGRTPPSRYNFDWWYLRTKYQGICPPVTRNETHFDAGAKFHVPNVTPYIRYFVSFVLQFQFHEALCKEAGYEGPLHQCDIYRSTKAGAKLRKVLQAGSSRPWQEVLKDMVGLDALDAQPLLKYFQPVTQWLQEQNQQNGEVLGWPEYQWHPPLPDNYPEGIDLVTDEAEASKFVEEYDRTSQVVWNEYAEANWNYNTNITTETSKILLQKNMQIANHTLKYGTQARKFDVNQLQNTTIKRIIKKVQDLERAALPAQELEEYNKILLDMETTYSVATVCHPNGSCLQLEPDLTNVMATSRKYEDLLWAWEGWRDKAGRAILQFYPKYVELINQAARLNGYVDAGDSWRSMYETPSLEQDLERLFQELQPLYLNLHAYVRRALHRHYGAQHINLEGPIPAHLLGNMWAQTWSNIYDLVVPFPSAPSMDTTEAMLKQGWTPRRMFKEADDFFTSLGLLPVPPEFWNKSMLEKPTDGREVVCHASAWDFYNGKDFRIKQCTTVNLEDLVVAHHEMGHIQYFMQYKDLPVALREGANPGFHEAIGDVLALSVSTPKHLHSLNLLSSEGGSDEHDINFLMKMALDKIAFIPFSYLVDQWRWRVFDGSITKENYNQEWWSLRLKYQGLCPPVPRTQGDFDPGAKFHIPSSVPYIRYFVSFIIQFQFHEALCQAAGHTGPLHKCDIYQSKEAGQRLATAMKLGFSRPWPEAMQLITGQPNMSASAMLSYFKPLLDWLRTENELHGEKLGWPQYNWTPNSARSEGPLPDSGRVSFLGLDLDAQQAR

T1 sequence (P12821 30-1256): as above
T2 sequence (Q9BYF1 19-615): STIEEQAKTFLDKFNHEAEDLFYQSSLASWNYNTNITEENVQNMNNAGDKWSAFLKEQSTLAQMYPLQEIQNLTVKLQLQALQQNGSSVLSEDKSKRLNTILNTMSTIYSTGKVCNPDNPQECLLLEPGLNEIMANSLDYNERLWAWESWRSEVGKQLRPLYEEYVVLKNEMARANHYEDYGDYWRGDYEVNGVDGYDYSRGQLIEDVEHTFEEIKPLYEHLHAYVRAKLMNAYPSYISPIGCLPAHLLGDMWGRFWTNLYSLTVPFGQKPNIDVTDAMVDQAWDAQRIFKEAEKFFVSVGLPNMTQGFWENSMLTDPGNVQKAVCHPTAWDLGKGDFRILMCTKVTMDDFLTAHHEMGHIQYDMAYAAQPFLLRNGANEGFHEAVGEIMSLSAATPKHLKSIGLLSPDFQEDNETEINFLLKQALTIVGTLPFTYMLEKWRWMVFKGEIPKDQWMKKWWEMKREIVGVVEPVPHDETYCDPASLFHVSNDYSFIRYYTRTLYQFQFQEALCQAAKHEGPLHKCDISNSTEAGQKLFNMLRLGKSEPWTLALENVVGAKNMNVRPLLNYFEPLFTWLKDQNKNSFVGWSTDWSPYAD
Chain of extracellular catalytic domain of human angiotensin-converting enzyme 2 (hACE2), produced in mammalian cells (Q9BYF1 19-615): as above

| Binder | IC50 [1] [µM] | Ki [5] [µM] | further results |
| --- | --- | --- | --- |
| B1 | > 100 | – | – |
| B2 | > 100 | – | stoichiometry N [2]: 1.4 sites |
| B3 | > 100 | – | – |
| B4 | – | – | IC50 [3]: > 100 µM; Ki [3]: > 100 µM |
| B5 | – | – | Kd [4]: 0.0538 µM |
| B6 | – | > 100 | – |
| B7 | – | > 100 | – |
| B8 | – | > 100 | – |
